Reference: patent publication US20160130347A1 (Hoffmann-La Roche, published 2016)

T1: human MCSP(D3 domain)-avi-his (human, UniProt Q6UVK1 1587-2221, limits assumed)
T1 construct: domain: D3 domain; also called hu-MCSP(D3 domain)-avi-his
T1 sequence (looked up): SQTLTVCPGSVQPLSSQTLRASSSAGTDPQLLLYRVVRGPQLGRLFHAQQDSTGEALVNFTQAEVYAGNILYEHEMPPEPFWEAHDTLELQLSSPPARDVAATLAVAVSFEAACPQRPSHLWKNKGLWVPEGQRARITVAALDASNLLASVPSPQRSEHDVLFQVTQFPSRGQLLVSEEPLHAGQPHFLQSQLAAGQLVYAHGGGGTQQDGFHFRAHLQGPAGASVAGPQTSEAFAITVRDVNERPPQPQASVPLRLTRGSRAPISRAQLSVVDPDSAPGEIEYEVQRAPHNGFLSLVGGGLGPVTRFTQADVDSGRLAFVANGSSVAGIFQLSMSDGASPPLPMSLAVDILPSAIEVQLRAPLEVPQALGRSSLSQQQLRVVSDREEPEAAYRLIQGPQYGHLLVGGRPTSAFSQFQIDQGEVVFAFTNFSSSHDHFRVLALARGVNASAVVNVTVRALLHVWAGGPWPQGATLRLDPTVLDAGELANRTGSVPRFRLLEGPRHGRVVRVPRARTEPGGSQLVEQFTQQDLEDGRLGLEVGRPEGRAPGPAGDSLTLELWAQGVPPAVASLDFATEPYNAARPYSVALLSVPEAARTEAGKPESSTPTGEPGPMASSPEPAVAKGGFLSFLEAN

B1: hu Fab (MCSP)-Crossfab (CD3) (bispecific antibody)
chain 1: EVQLQESGPGLVKPSQSLSLTCSVTGYSITSGYYWNWIRQFPGNKLEWMGYITYDGSNNYNPSLKNRISITRDTSKNQFFLKLNSVTTEDTATYYCADFDYWGQGTTLTVSSASTKGPSVFPLAPSSKSTSGGTAALGCLVKDYFPEPVTVSWNSGALTSGVHTFPAVLQSSGLYSLSSVVTVPSSSLGTQTYICNVNHKPSNTKVDKKVEPKSCDGGGGSGGGGSDIQMTQSPSSLSASVGDRVTITCRASQDIRNYLNWYQQKPGKAPKLLIYYTSRLESGVPSRFSGSGSGTDYTLTISSLQPEDFATYYCQQGNTLPWTFGQGTKVEIKSSASTKGPSVFPLAPSSKSTSGGTAALGCLVKDYFPEPVTVSWNSGALTSGVHTFPAVLQSSGLYSLSSVVTVPSSSLGTQTYICNVNHKPSNTKVDKKVEPKSC
light: DIVLTQSPSSLSASLGDRVTISCSASQGIRNYLNWYQQRPDGTVKLLIYYTSSLHSGVPSRFSGSGSGTDYSLTISNLEPEDIATYYCQQYSKLPWTFGGGTKLEIKRTVAAPSVFIFPPSDEQLKSGTASVVCLLNNFYPREAKVQWKVDNALQSGNSQESVTEQDSKDSTYSLSSTLTLSKADYEKHKVYACEVTHQGLSSPVTKSFNRGEC
chain 2: EVQLVESGGGLVQPGGSLRLSCAASGYSFTGYTMNWVRQAPGKGLEWVALINPYKGVSTYNQKFKDRFTISVDKSKNTAYLQMNSLRAEDTAVYYCARSGYYGDSDWYFDVWGQGTLVTVSSASVAAPSVFIFPPSDEQLKSGTASVVCLLNNFYPREAKVQWKVDNALQSGNSQESVTEQDSKDSTYSLSSTLTLSKADYEKHKVYACEVTHQGLSSPVTKSFNRGEC
B2: hu Fab (MCSP)=Crossfab (CD3) (bispecific antibody)
chain 1: B1 chain 1
chain 2: EVQLVESGGGLVQPGGSLRLSCAASGYSFTGYTMNWVRQAPGKGLEWVALINPYKGVSTYNQKFKDRFTISVDKSKNTAYLQMNSLRAEDTAVYYCARSGYYGDSDWYFDVWGQGTLVTVSSASVAAPSVFIFPPSDEQLKSGTASVVCLLNNFYPREAKVQWKVDNALQSGNSQESVTEQDSKDSTYSLSSTLTLSKADYEKHKVYACEVTHQGLSSPVTKSFNRGECDGGGGSGGGGSDIVLTQSPSSLSASLGDRVTISCSASQGIRNYLNWYQQRPDGTVKLLIYYTSSLHSGVPSRFSGSGSGTDYSLTISNLEPEDIATYYCQQYSKLPWTFGGGTKLEIKRTVAAPSVFIFPPSDEQLKSGTASVVCLLNNFYPREAKVQWKVDNALQSGNSQESVTEQDSKDSTYSLSSTLTLSKADYEKHKVYACEVTHQGLSSPVTKSFNRGEC
B3: M4-3(C1)/ML2(G3) IgG (antibody, V domains shown)
VH: QVQLQESGPGLVKPSQTLSLTCTVSGGSITSGYYWNWIRQHPGKGLEWIGYITFDGSNNYNPSLKSRVTISRDTSKNQFSLKLSSVTAADTAVYYCADFDYWGQGTLVTVSS
VL: DIQMTQSPSSLSASVGDRVTITCRASQGIRNYLNWYQQKPGKAPKLLIYYTSSLHSGVPSRFSGSGSGTDYTLTISSLQPEDFATYYCQQYSALPWTFGQGTKVEIKR
notes: Human IgG1; also called MCSP M4-3(C1)ML2(G3)
B4: (scFv)2 (antiMCSP/anti huCD3e) (bispecific antibody)
scFv: DIVLTQSPSSLSASLGDRVTISCSASQGIRNYLNWYQQRPDGTVKLLIYYTSSLHSGVPSRFSGSGSGTDYSLTISNLEPEDIATYYCQQYSKLPWTFGGGTKLEIKGGGGSGGGGSGGGGSEVQLQESGPGLVKPSQSLSLTCSVTGYSITSGYYWNWIRQFPGNKLEWMGYITYDGSNNYNPSLKNRISITRDTSKNQFFLKLNSVTTEDTATYYCADFDYWGQGTTLTVSSGGGGSEVQLVESGGGLVQPGGSLRLSCAASGYSFTGYTMNWVRQAPGKGLEWVALINPYKGVSTYNQKFKDRFTISVDKSKNTAYLQMNSLRAEDTAVYYCARSGYYGDSDWYFDVWGQGTLVTVSSVEGGSGGSGGSGGSGGVDDIQMTQSPSSLSASVGDRVTITCRASQDIRNYLNWYQQKPGKAPKLLIYYTSRLESGVPSRFSGSGSGTDYTLTISSLQPEDFATYYCQQGNTLPWTFGQGTKVEIKHHHHHH

Legend:
[1] = target: human MCSP on tumor cells (human, UniProt Q6UVK1 30-2322); experiment: cell-based or functional assay
Sequence of human MCSP on tumor cells (Q6UVK1 30-2322): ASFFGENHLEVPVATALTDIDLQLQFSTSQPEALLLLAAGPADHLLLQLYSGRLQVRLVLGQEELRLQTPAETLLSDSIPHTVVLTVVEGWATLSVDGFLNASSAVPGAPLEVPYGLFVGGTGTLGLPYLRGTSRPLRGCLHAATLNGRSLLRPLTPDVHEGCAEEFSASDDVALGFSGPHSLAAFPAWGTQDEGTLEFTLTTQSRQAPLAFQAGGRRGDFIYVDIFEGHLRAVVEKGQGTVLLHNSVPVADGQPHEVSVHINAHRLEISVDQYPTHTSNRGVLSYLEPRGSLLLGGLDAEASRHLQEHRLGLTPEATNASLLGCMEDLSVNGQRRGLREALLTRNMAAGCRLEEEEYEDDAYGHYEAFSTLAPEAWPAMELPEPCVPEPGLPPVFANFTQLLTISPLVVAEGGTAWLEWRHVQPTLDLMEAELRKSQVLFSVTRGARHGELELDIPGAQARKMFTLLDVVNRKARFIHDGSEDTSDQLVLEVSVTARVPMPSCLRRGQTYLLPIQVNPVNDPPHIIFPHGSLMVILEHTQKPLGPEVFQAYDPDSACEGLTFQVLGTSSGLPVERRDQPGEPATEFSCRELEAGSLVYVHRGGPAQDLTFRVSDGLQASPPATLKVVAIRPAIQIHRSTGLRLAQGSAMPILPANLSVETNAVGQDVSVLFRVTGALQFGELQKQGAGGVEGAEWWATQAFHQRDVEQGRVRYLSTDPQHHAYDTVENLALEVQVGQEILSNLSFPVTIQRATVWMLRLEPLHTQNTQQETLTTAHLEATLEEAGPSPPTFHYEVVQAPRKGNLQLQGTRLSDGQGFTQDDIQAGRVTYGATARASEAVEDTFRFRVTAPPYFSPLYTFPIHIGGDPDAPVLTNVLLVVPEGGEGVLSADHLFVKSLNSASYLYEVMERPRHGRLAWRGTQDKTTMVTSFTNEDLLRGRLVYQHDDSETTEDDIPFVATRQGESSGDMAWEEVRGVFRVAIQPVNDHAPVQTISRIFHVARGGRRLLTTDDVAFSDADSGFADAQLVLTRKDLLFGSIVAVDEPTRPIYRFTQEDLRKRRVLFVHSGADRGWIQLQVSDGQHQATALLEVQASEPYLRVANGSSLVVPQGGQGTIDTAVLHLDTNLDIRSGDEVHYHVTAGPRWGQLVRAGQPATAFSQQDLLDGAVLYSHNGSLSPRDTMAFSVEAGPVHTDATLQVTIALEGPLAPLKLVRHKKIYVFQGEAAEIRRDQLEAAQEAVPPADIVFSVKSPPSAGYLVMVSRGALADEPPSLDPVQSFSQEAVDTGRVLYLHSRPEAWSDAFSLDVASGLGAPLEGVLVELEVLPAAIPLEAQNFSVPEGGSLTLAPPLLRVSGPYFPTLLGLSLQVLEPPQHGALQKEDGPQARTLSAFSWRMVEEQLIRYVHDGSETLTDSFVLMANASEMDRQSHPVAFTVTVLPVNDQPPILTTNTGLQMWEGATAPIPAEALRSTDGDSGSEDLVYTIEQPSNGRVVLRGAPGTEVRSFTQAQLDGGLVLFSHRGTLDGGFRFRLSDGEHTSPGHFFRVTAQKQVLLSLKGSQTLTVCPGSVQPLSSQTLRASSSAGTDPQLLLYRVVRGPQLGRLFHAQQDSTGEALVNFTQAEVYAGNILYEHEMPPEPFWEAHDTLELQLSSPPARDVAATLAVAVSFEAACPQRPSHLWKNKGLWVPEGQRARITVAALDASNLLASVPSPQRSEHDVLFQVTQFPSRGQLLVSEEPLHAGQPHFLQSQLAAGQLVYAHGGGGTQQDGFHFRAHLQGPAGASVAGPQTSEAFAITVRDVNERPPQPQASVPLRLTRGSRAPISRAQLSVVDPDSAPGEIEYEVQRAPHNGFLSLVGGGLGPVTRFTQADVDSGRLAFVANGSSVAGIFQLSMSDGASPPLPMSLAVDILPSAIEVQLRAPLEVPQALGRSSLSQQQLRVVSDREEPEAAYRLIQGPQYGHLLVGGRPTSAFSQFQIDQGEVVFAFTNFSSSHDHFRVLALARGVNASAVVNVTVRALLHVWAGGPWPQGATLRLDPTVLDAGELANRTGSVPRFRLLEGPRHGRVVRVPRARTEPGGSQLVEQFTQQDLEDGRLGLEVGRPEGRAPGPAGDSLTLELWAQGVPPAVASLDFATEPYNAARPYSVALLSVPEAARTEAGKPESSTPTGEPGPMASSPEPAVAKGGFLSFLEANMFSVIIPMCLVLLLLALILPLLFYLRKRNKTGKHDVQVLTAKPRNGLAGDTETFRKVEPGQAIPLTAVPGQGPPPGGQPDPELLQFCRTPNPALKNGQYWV

human CD3 on T cells = human CD3 on T cells (human, UniProt P07766 23-126); experiment: cell-based or functional assay
Sequence of human CD3 on T cells (P07766 23-126 limits assumed): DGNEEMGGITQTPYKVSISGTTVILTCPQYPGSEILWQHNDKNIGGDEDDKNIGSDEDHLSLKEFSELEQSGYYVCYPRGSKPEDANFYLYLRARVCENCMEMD

[2] = target: T1, human MCSP(D3 domain)-avi-his; experiment: ratio of ProteOn IgG KD against parental M4-3/ML2 IgG
Experimental: (§1) Briefly, carboxymethylated dextran biosensor chips (CM5, GE Healthcare) were activated with N-ethyl-N′-(3-dimethylaminopropyl)-carbodiimide hydrochloride (EDC) and N-hydroxysuccinimide (NHS) according to the supplier's instructions. Anti-human F(ab′)2 fragment specific capture antibody was diluted with 10 mM sodium acetate, pH 5.0 at 50 μg/ml before injection at a flow rate of 10 μl/minute to achieve approximately up to 10.000 response units (RU) of coupled capture antibody. Following the injection of the capture antibody, 1 M ethanolamine is injected to block unreacted groups. For kinetics measurements, Fabs from bacterial supernatant or purified Fabs were injected at a flow rate of 10 ul/minute for 300 s and a dissociation of 300 s for capture baseline stabilization. Capture levels were in the range of 100-500 RU. […] The surface of the sensorchip was regenerated by injection of glycine pH 1.5 for 30 s at 90 ul/min followed by injection of NaOH for 20 s at the same flow rate. Association rates (kon) and dissociation rates (koff) were calculated using a simple one-to-one Langmuir binding model (ProteOn XPR36 Evaluation Software or Scrubber software (BioLogic)) by simultaneously fitting the association and dissociation sensorgrams. The equilibrium dissociation constant (KD) was calculated as the ratio koff/kon.
(§2) Method exactly as described for the Fab fragments, just purified IgG from mammalian production were used.

cynomolgus MCSP D3 = target: T2, cynomolgus MCSP D3 (cynomolgus); experiment: as above
T2 construct: domain: D3; also called Cyno MCSP; cynomolgus homologue
Experimental: as §1, §2

Binder	EC50 of killing (LDH release) of MV-3 cells, human PBMCs, E:T 10:1, ~24 h [1] [nM]	EC50 of killing (LDH release) of MV-3 cells, human PBMCs, E:T 10:1, ~24 h (human CD3 on T cells) [nM]	fold increase over parent (IgG KD, comparative binding affinity) [2] [fold]	fold increase over parent (IgG KD, comparative binding affinity) (cynomolgus MCSP D3) [fold]
B1	0.0254	0.0254	–	–
B2	0.0898	0.0898	–	–
B3	–	–	28.6	10
B4	0.0571	0.0571	–	–
